From US8688427B2, “Enzyme catalysts for diels-alder reactions” (University of Washington, priority 2008, dated 2014)

Assays:
[1] = system: catalytic antibody mAb 4D5; conditions: 310K; read-out: KM-dienophile; cited from earlier work
[2] = system: catalytic antibody mAb 7D4; conditions: 310K; read-out: KM-dienophile; cited from earlier work
[3] = system: Diels-Alderase DA_20_10, variant of DA_20_00 (Loligo vulgaris diisopropylfluorophosphatase scaffold, SEQ ID NO:2) with A21T/A74I/S271A/A173C/Q149R/A272N, SEQ …; assay: Kinetics of Diels-Alder reaction catalysed by optimized DA_20_10; assay type: biochemical; conditions: 298K; PBS; 20 μM protein; error = 95% confidence interval; read-out: KM-dienophile
Description: (A) Dependence of reaction velocity on diene concentration for different fixed dienophile concentrations. The diene concentration was varied from 3.0 to 0.18 mM with a fixed concentration of 100 mM (⋄), 66 mM (Δ), 44 mM (⋄), 30 mM (◯), 20 mM (◯), or 13 mM (●) dienophile (B) Dependence of reaction velocity on dienophile concentration for different fixed diene concentrations. The dienophile was varied from 100 to 13.0 mM with a fixed concentration of 3 mM (♦), 2 mM (▴), 1.3 mM (∇), 0.9 mM (Δ), 0.6 mM (⋄), 0.4 mM (□), 0.26 mM (◯), or 0.18 mM (●) […]. Reactions were carried out with 20 μM protein in PBS at 298 K.
(§1) The Diels-Alder reactions were performed in PBS, at 25° C., with 4% DMSO. The DMSO came from the diene, for which the stock solution (100 mM) was made in DMSO and always diluted such that the final reaction would contain 4% DMSO. After incubation of the desired amount of diene and dienophile in the presence or absence of the protein, time points were taken of the reaction (5 μL) and quenched in a solution of 80:20 acetonitrile:water with 0.1% formic acid and 1 mM Benzoic Acid (95 μL). This reaction was incubated for 5 minutes and then the precipitated protein filtered using a Millipore multiscreen solvinert filter plate (Product Number: MSRLN0450). 20 μL of the filtered quench solution was then injected and analyzed using a liquid chromatography-tandem mass spectroscopy (LC-MSMS) assay.
To summarize the optimization rounds, residues contacting the transition state in DA—20—00 were mutated individually to sets of residues predicted to retain or improve transition state binding and bolster the two catalytic residues. […] Three of the mutations (FIG. 6C) likely improve the packing around the transition state (A741, A21 T) or catalytic glutamine (A173C). Two of the mutations likely improve the overall electrostatic complementarity with the bound substrates and transition state: Q149R hydrogen bonds to the carboxylate on the diene and S271A makes the dienophile environment more non polar.
The kinetics of the DA—20—10 catalyzed reaction was characterized by measuring the dependence of the reaction velocity on the concentration of both diene and dienophile. The effective molarity (kcat/kuncat) of DA—20—10 is 100 M, and the rate enhancement (kcat/(kuncat*KM_diene)) in the presence of saturating dienophile and limiting diene is 1.0×10^5. At high substrate concentrations DA—20—10 proceeds for more than 30 turnovers before the enzyme loses activity. At higher enzyme concentrations more than 80% of the diene substrate is converted to product.
The errors represent the calculated 95% confidence interval. The parameter a describes the cooperativity of binding between the two substrates: a value greater than one indicates negative cooperativity, whereas a value lower then one indicates positive cooperativity. α could not be determined for DA—20—00. Kinetic parameters for catalytic antibodies 7D4 and 4D5 were taken from (10, 17).

[4] = system: catalytic antibody 1E9; conditions: with N-ethyl maleimide as second substrate; cited from earlier work
[5] = Production run and effects of knocking out the catalytic residues; assay type: biochemical; conditions: for decrease of catalytic activity on mutation of a catalytic residue of DA_20_10: relative to DA_20_10
Description: The reaction was carried out in 1 mM diene, 50 mM dienophile, 200 μM enzyme, in PBS at 298K. The proteins assayed are DA—20—10 (υ), Y121F (▴), Q195E (x), and tela scaffold (*), uncatalyzed (λ).
To determine whether the observed activity depends on the designed active site, we investigated the contributions of the designed catalytic residues in DA—20—10 to catalysis. Glutamine 195 was mutated into a glutamate (Q195E) and tyrosine 121 was mutated into a phenylalanine (Y121F). We had originally incorporated a glutamine rather than a glutamate at this position, despite the fact that the carboxylate should make a stronger hydrogen bond with the diene carbamate. This hydrogen bond should increase the energy of the diene HOMO (and thus decrease the energy gap with the dienophile LUMO), and more greatly stabilize the transition state. However, we were concerned that the substantial free energy cost of desolvating the carboxylate would considerably reduce binding affinity for the diene. […] The Y121F mutation decreases catalytic activity by 27-fold, consistent with the removal of a hydrogen bond that contributes to dienophile binding, stabilizes the dienophile LUMO, and is enhanced in the transition state.
Timepoints were taken and measured as previously described over a period of 60 hours.

[6] = Diels-Alder activity assay with purified protein, LC-MSMS product detection; assay type: biochemical; conditions: PBS
Description: The observed velocity for each mutant was normalized by the velocity of DA—20—00 in order to determine the effective rate enhancement conferred by each mutation. The reactions were done at 1 mM diene, and 10 mM dienophile, PBS, 298K, and 100 μM protein.
Mutations showing enhanced activity on DA—20—04 were sequenced, grown large scale, and assayed. The assay was done at 0.1 mM dieine, 3 mM dienophile, PBS, 298K, and 20 μM protein.
as §1
A total of 43 variants were assayed using the standard activity assay. The observed activities are described in Table 2. In Table 2, the Expression column provides the number of times the mutant was expressed; the Observed column reports the raw signal level out of the mass-spec for the product (the Observed column is not normalized nor background corrected); the Concentration column provides the concentration of the protein after large-scale expression. […]

[7] = Plate assay of crude cell lysate, second round of active site optimization; assay type: biochemical; conditions: Mutations Recombined; single mutations on DA_20_04; Neg_Control 0, Pos_Control 1
Description: Since it was unreasonable to prepare the 176 enzyme variants in large scale, a plate assay was developed in which colonies directly from a Kunkel mutagenesis (8) reaction could be screened. Kunkel mutagenesis reactions were transformed directly into BL21(DE3)™ (Invitrogen) in order to generate each of the desired mutants. Four colonies from each plated reaction was picked and grown at 37° C. in 0.5 mL of LB-Kanamycin overnight. […]. This culture was grown for 2-3 hours at 37° C., after which 50 μL of 10 mM IPTG was added to each well (0.5 mM Final) in order to induce expression. The cells were then grown for 24 hours at 18° C., harvested, and stored at −20° C. until ready for assaying. To assay, crude cell lysate was prepared by resuspending the cells in 500 uL of PBS and lysing through 3 freeze/thaw cycles (15 minutes at −80° C., 40 minutes at 25° C.), followed by centrifugation at 4000 rpm for 30 minutes. […] Samples from each reaction were then quenched and product detected using a liquid chromatography-tandem mass spectroscopy.
To help remove some of this noise, samples showing WT activity were discarded if at least 2 of the other colonies picked from that Kunkel reaction did show an effect on activity (either greater or less than WT). […] The relative effect of each mutation was calculated. […]

C=CC(=O)N(C)C [dienophile, N,N-dimethylacrylamide]
Km [1]: 5.9 mM | Km [2]: 1.7 mM | Km [3]: 58.1 ± 14 mM

O=S1(=O)C(Cl)=C(Cl)C(Cl)=C1Cl [tetrachlorothiophene dioxide]
catalytic proficiency [4]: 10^7 M^−1 | effective molarity [4]: 10^3 M

B1: wild-type scaffold: diisopropylfluorophosphatase from Loligo vulgaris (PDB-ID 1E1A) (protein, listed as Loligo vulgaris)
chain: MEIPVIEPLFTKVTEDIPGAEGPVFDKNGDFYIVAPEVEVNGKPAGEILRIDLKTGKKTVICKPEVNGYGGIPAGCQCDRDANQLFVADMRLGLLVVQTDGTFEEIAKKDSEGRRMQGCNDCAFDYEGNLWITAPAGEVAPADYTRSMQEKFGSIYCFTTDGQMIQVDTAFQFPNGIAVRHMNDGRPYQLIVAETPTKKLWSYDIKGPAKIENKKVWGHIPGTHEGGADGMDFDEDNNLLVANWGSSHIEVFGPDGGQPKMRIRCPFEKPSNLHFKPQTKTIFVTEHENNAVWKFEWQRNGKKQYCETLKFGIF
activity (in words) [5]: did not show any measurable activity

B2: DA_20_00: original Diels-Alder enzyme design on diisopropylfluorophosphatase scaffold (PDB-ID 1E1A) (protein)
chain: MEIPVIEPLFTKVTEDIPGAAGPVFDKNGDFYIVAPYVEVNGKPAGEILRIDLKTGKKTVICKPEVNGYGGIPAGCQCDRDANQLFVADMRLGLLVVQTDGTFEEIAKKDSEGRRMQGCAYCAFDYEGNLWITAPAGEVAPADFTISLQEKFGSIYCFTTDGQMIQVDTAFQAPAGIAVRHMNDGRPYQLIVAEQPTKKLWSYDIKGPAKIENKKVWGHIPGTHKGGAAGMDFDEDNNLLVANWGSSHIEVFGPDGGQPKMRIRCPFEKPSALHFKPQTKTIFVTEHENNAVWKFEWQRNGKKQYCETLKFGIFGSLEHHHHHH
modifications: Enzyme catalyst for Diels-Alder reaction
activity versus background reaction (in words) ([6]; 25° C., 4% DMSO): increased activity over the background reaction

B3: DA_20_04: DA_20_00 triple mutant A21T, A74I, S271A (protein)
chain: MEIPVIEPLFTKVTEDIPGATGPVFDKNGDFYIVAPYVEVNGKPAGEILRIDLKTGKKTVICKPEVNGYGGIPIGCQCDRDANQLFVADMRLGLLVVQTDGTFEEIAKKDSEGRRMQGCAYCAFDYEGNLWITAPAGEVAPADFTISLQEKFGSIYCFTTDGQMIQVDTAFQAPAGIAVRHMNDGRPYQLIVAEQPTKKLWSYDIKGPAKIENKKVWGHIPGTHKGGAAGMDFDEDNNLLVANWGSSHIEVFGPDGGQPKMRIRCPFEKPAALHFKPQTKTIFVTEHENNAVWKFEWQRNGKKQYCETLKFGIFGSLEHHHHHH
modifications: Enzyme catalyst for Diels-Alder reaction
notes: DA_20_00 triple mutant A21T, A74I, S271A
product formed per hour ([6]; 0.1 mM diene, 3 mM dienophile, 298K, 20 μM protein): 21.9 nM of product/hour | rate enhancement over DA_20_00 (velocity normalized by velocity of DA_20_00) ([6]; 1 mM diene, 10 mM dienophile, 298K, 100 μM protein): 20.5 fold | Effect on [7]: 1

B4: Q195E: DA_20_10 with glutamine 195 mutated into a glutamate (protein)
chain: MEIPVIEPLFTKVTEDIPGAAGPVFDKNGDFYIVAPYVEVNGKPAGEILRIDLKTGKKTVICKPEVNGYGGIPAGCQCDRDANQLFVADMRLGLLVVQTDGTFEEIAKKDSEGRRMQGCAYCAFDYEGNLWITAPAGEVAPADFTISLQEKFGSIYCFTTDGQMIQVDTAFQAPAGIAVRHMNDGRPYQLIVAEEPTKKLWSYDIKGPAKIENKKVWGHIPGTHKGGAAGMDFDEDNNLLVANWGSSHIEVFGPDGGQPKMRIRCPFEKPSALHFKPQTKTIFVTEHENNAVWKFEWQRNGKKQYCETLKFGIFGSLEHHHHHH
decrease of catalytic activity on mutation of a catalytic residue of DA_20_10 [5]: 450 fold

B5: Y121F: DA_20_10 with tyrosine 121 mutated into a phenylalanine (protein)
chain: MEIPVIEPLFTKVTEDIPGAAGPVFDKNGDFYIVAPYVEVNGKPAGEILRIDLKTGKKTVICKPEVNGYGGIPAGCQCDRDANQLFVADMRLGLLVVQTDGTFEEIAKKDSEGRRMQGCAFCAFDYEGNLWITAPAGEVAPADFTISLQEKFGSIYCFTTDGQMIQVDTAFQAPAGIAVRHMNDGRPYQLIVAEQPTKKLWSYDIKGPAKIENKKVWGHIPGTHKGGAAGMDFDEDNNLLVANWGSSHIEVFGPDGGQPKMRIRCPFEKPSALHFKPQTKTIFVTEHENNAVWKFEWQRNGKKQYCETLKFGIFGSLEHHHHHH
decrease of catalytic activity on mutation of a catalytic residue of DA_20_10 [5]: 27 fold
